{"source": "patent US20210054097A1", "about": "(Novo Nordisk, published 2021)", "binders": {"B1": {"name": "Nb 721E08 (VHH)", "VHH": "EVQLVESGGGVVQPGGSLRLSCAASGRTFSTYSMGWFRQAPGKEREFVAAITRRGSRTYYADSVKGRFTISRDNSKNTVYLQMNSLRPEDTALYYCAADRRPADSYLDYWGQGTLVTVSS", "notes": "monovalent Nanobody; not shown: C-terminal FLAG3 and HIS6 tag"}}, "key": {"[1]": {"target": "T1, FX activation peptide 12-mer ADLDPTENPFDL (human)", "T1 peptide": "ADLDPTENPFDL-biotin", "experiment": "peptide ELISA", "protocol": "(§1) The peptides were C-terminally conjugated to biotin and 50 μL of 1 μg/mL peptide solution was used for immobilization in discrete wells of the microtiter plate which was pre-coated with 1 μg/mL streptavidin. Each well was washed with washing buffer (10 mM Tris, 150 mM NaCl, 2.5 mM CaCl₂, 0.05% Tween 20, pH 8.60) followed by addition of 50 μL of 2 μg/mL FLAG-tagged anti-FX Nanobody® or IgG antibody to be tested. After 1 hour non-bound Nanobody®/antibody was washed off using washing buffer.\n(§2) Bound anti-FX activation peptide ligand was detected by first binding a HRP-labelled secondary antibody (for FLAG-tagged Nanobodies: Anti-FLAG mAb M2-Peroxidase (HRP) (Sigma Aldrich, US), for antibody: Fcγ Fragment Specific Peroxidase AffiniPure F(ab′)₂ Fragment Goat Anti-Human IgG (Jackson ImmunoResearch Laboratories, Inc., US), or Peroxidase AffiniPure Goat Anti-Mouse IgG (Jackson ImmunoResearch Laboratories, Inc., US)) for 1 hour, and then adding 100 μL TMB-1 ELISA substrate (Kem-En-Tec Diagnostics, Denmark)."}, "[2]": {"target": "T2, FX activation peptide 12-mer SSSGEAPDSITW (human)", "T2 peptide": "SSSGEAPDSITW-biotin", "experiment": "peptide ELISA", "protocol": "as §1, §2"}, "[3]": {"target": "T3, FX activation peptide 12-mer WKPYDAADLDPT (human)", "T3 peptide": "WKPYDAADLDPT-biotin", "experiment": "peptide ELISA", "protocol": "as §1, §2"}, "[4]": {"target": "T4, FX activation peptide 12-mer LDFNQTQPERGD (human)", "T4 peptide": "LDFNQTQPERGD-biotin", "experiment": "peptide ELISA", "protocol": "as §1, §2"}, "[5]": {"target": "T5, FX activation peptide 12-mer TQPERGDNNLTR (human)", "T5 peptide": "TQPERGDNNLTR-biotin", "experiment": "peptide ELISA", "protocol": "as §1, §2"}, "[6]": {"target": "T6, FX activation peptide 12-mer AADLDPTENPFD (human)", "T6 peptide": "AADLDPTENPFD-biotin", "experiment": "peptide ELISA", "protocol": "as §1, §2"}, "[7]": {"target": "T7, FX activation peptide 12-mer QTQPERGDNNLT (human)", "T7 peptide": "QTQPERGDNNLT-biotin", "experiment": "peptide ELISA", "protocol": "as §1, §2"}, "[8]": {"target": "T8, FX activation peptide 12-mer KPYDAADLDPTE (human)", "T8 peptide": "KPYDAADLDPTE-biotin", "experiment": "peptide ELISA", "protocol": "as §1, §2"}, "[9]": {"target": "T9, FX activation peptide 12-mer QATSSSGEAPDS (human)", "T9 peptide": "QATSSSGEAPDS-biotin", "experiment": "peptide ELISA", "protocol": "as §1, §2"}, "[10]": {"target": "T10, FX activation peptide 12-mer AQATSSSGEAPD (human)", "T10 peptide": "AQATSSSGEAPD-biotin", "experiment": "peptide ELISA", "protocol": "as §1, §2"}, "[11]": {"target": "human activated Factor X (human, UniProt P00742 41-179; P00742 235-488)", "sequence (P00742 41-179, chain 1 of 2)": "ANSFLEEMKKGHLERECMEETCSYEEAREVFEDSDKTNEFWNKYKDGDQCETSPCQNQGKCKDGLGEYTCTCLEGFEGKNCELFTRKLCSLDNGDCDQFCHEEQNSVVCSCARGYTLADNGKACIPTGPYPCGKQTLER", "sequence (P00742 235-488, chain 2 of 2)": "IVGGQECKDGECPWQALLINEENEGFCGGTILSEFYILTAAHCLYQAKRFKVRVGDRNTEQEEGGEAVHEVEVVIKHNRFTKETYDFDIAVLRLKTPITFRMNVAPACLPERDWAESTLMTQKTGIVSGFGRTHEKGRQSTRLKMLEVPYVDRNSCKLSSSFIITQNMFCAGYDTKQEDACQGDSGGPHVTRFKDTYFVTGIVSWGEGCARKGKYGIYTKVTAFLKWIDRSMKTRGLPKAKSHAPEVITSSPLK", "experiment": "cell-based or functional assay"}, "[12]": {"target": "T11, human plasma-derived Factor X zymogen (human, UniProt P00742 41-179; P00742 183-488)", "T11 construct": "Plasma-derived, bought (Haematologic Technologies); also called FX; human FX", "T11 sequence (P00742 41-179, chain 1 of 2)": "as the sequence (P00742 41-179, chain 1 of 2) above", "T11 sequence (P00742 183-488, chain 2 of 2)": "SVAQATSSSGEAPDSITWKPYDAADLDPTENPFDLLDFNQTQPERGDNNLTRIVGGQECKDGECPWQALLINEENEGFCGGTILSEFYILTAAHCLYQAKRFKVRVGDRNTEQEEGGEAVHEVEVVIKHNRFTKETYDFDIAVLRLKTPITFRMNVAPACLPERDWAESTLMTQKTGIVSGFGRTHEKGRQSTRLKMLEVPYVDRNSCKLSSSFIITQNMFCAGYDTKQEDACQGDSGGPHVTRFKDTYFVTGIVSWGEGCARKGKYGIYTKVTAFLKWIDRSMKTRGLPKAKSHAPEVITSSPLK", "experiment": "apparent KD fitted from FXa generation assay", "protocol": "The ability of the monovalent anti-FX Nanobody® (Nb) to promote FIXa-mediated FX-activation was determined in the presence of a procoagulant phospholipid membrane according to the principles described by Scheiflinger et al. (2008) J Thromb Haemost, 6:315-322. A Fab of mAb 13F62 (IgG1 isotype, variable sequences identified by SEQ ID NO:6 and 7), also found to bind the activation peptide, were included for comparison. Moreover, anti-FX antibodies as disclosed in U.S. Pat. No. 9,334,331 (J327 and L404-k in said publication), corresponding to the anti-FX arm of ACE910); and more recently in WO2018/021450 (J327 D31H and JYL280 in said publication) and WO2018/098363 (BIIB-12-917 represented by SEQ ID NO:427 and 615 in said publication) are stated to be suitable for use as part of anti-FIX/anti-FX bispecific FVIII mimetic compounds were, furthermore, included for comparison.\nEach compound was tested individually in a concentration range from 0-1000 nM, 0-2000 nM, 0-4000 nM or 0-8000 nM by pre-incubation with 1-1.5 nM human plasma-derived FIXa (Haematologic Technologies Inc, USA) and 500 μM 25:75 phosphatidyl serine:phosphatidyl choline phospholipid vesicles (Haematologic Technologies Inc, USA) in assay buffer (50 mM HEPES, 100 mM NaCl, 5 mM CaCl₂, 0.1% (w/v) PEG8000, 1 mg/mL bovine serum albumin, pH 7.3) for 10 minutes. The reaction was initiated by addition of human plasma-derived FX (Haematologic Technologies Inc, USA) to a final concentration of 100 nM and a reaction volume of 50 μL. Following 20 minutes activation at room temperature while agitated (1000 RPM), the reaction was quenched by addition of 25 μL quench buffer (50 mM HEPES, 100 mM NaCl, 60 mM EDTA, 0.1% (w/v) PEG8000, 1 mg/mL bovine serum albumin, pH 7.3). The amount of FXa generated was determined by addition of 25 μL 2 mM S-2765 chromogenic substrate for FXa (Chromogenix, Sweden) and chromogenic substrate conversion was followed by measuring absorbance at 405 nm for 10 minutes in a microplate reader. The observed change in 405 nm absorbance (ΔAbs405/min) was fitted to the quadratic binding equation (eq. 1) to obtain the peak stimulatory activity and EC50."}, "[13]": {"target": "T11, human plasma-derived Factor X zymogen", "experiment": "cell-based or functional assay"}}, "note": "Ends that are not written are not given here."}
{"binder": "B1", "values": [{"measurement": "ELISA signal relative to background", "setting": "[1]", "result": 2.34}, {"measurement": "ELISA signal relative to background", "setting": "[2]", "result": 1.99}, {"measurement": "ELISA signal relative to background", "setting": "[3]", "result": 1.83}, {"measurement": "ELISA signal relative to background", "setting": "[4]", "result": 2.21}, {"measurement": "ELISA signal relative to background", "setting": "[5]", "result": 1.97}, {"measurement": "ELISA signal relative to background", "setting": "[6]", "result": 2.22}, {"measurement": "ELISA signal relative to background", "setting": "[7]", "result": 1.96}, {"measurement": "ELISA signal relative to background", "setting": "[8]", "result": 1.89}, {"measurement": "ELISA signal relative to background", "setting": "[9]", "result": 1.97}, {"measurement": "ELISA signal relative to background", "setting": "[10]", "result": 1.92}, {"measurement": "FXa amidolytic activity (relative to free FXa, fold)", "setting": "[11]", "result": 1.07, "unit": "fold"}, {"measurement": "Kd", "setting": "[12]", "result": "~1.7", "unit": "µM"}, {"measurement": "Increase in FX activation (fold)", "setting": "[13]", "result": "> 25", "unit": "fold"}]}
